From patent EP4386000 (dated 2024)

T1: mouse CD25-his (mouse, UniProt P01590)
T1 chain: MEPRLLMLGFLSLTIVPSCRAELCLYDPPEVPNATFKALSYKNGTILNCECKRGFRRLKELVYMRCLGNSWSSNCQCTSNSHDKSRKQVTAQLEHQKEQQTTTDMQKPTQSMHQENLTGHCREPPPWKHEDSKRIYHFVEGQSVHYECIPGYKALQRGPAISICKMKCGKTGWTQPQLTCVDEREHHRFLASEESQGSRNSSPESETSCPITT

T2: human CD25-his (human, UniProt P01589)
T2 chain: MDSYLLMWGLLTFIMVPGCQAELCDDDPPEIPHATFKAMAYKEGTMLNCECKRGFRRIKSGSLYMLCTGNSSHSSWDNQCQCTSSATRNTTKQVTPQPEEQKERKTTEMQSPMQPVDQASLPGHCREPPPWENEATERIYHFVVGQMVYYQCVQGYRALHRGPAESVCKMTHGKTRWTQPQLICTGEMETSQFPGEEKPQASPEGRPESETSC

T3: human CD25 on CHO-K1 cells (human, UniProt P01589)
T3 chain: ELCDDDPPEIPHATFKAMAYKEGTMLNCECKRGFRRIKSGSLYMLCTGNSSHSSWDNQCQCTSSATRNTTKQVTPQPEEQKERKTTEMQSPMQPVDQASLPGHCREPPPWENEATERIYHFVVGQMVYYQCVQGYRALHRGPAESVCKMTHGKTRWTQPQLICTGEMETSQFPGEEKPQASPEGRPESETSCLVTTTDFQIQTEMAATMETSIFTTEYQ


Assays:
mouse CD25-his = molecular target: T1, mouse CD25-his; assay: ELISA
human CD25-his [1] = molecular target: T2, human CD25-his; assay: SPR, 25C
[2] = molecular target: T3, human CD25 on CHO-K1 cells; assay: FACS
human CD25-his [3] = molecular target: T2, human CD25-his; assay: ELISA

Binder | binding result (mouse CD25-his) | further results
2046-24H2L1 (2046-24ix) (antibody, V domains shown) VH: DVQLQESGPGLVKPSQSLSLTCTVTGYSITSDYAWNWIRQFPGNKLEWMGYISYGGTTIYNPSLKSRISITRDTSKNQFFLQLNSVTTEDTATYYCARWLLQNYYAMDYWGQGTSVTVSS VL: DVVMTQTPLSLPVSLGDQASISCRSSQSLVHSNGNTYLHWYLQKPGQSPKVLIYKVSNRFSGVPDRFSGSGSGTDFTLKISRVEAEDLGVYFCSQNTHVPLTFGAGTKLELK | no binding | –
2046-2H1L1 (2046-2ix) (antibody, V domains shown) VH: DVQLQESGPGLVKPSQSLSLTCTVTGYSITSDYAWNWIRHFPGNKLEWMGYITYSGSTVYNPSLKSRISITRDTSKNHFFLQLNSVTTEDTATYYCARWLLQIYYAMDYWGQGTSVTVSS VL: DVVMTQTPLSLPVSLGDQASISCRSSQSLVHSNGNTYLHWYLQKPGQSPKLLIYKVSNRFSGVPDRFSGSGSGTDFTLKISRVEAEDLGVYFCSQSTHVPLTFGAGTKLELK | no binding | –
2046-18H1L1 (2046-18ix) (antibody, V domains shown) VH: DVQLQESGPGLVKPSQSLSLTCTVTGYSITSDYAWNWIRQFPGNKLEWMGYISYSGITIYNPSLKSRISITRDTSKNQFFLQLNSVTTEDTATYYCARWLLQIYYAMDYWGQGTSVTVSS VL: DVVMTQTPLSLPVSLGDQASISCSSSQSLVHSNGNTYLHWYLHKPGQSPKLLIYKVSNRFSGVPDRFSGSGSGTDFTLKISRVEAEDLGVYFCSQSTHVPLTFGAGTKLELK | no binding | –
2046-61H1L2 (2046-61ix) (antibody) chain 1: DVQLQESGPGLVKPSQSLSLTCTVTGYSITSDYAWNWIRQFPGNKLEWMGYISYSGGTIYNPSLKSRISITRDTSKNQFFLQLNSVTTEDTATYYCARWLLQNYYAMDYWGQGTSVTVSS chain 2: DVVMTQTPLSLPVSLGDQASISCRSSQSLVHSNGNTYLHWNLQKPGQSPKLLIYKVSNRFSGVPDRFSGSGSGTDFTLKISRVEAEDLGVYFCSQSTHVPLTFSAGTKLELK | no binding | Kd (human CD25-his [1]): 9.44 nM; EC50 [2]: 0.00114 µg/mL; EC50 (human CD25-his [3]): 0.144 µg/mL
2046-111H2L1 (2046-111ix) (antibody, V domains shown) VH: DVQLQESGPGLVKPSQSLSLTCTVTGHSITSDYAWNWIRQFPGNKLEWMGYISYSGSTIYNPSLKSRISITRDTSKNQFFLQLNSVTTEDTATYYCARWLLQNYYAMDYWGQGTSVTVSS VL: DVVMTQTPLSLPVSLGDQASISCRSSQSLVHSNGNTYLHWYLRKPGQSPKLLIYKVSNRFSGVPDRFSGSGSGTDFTLKISRVEAEDLGVYFCSQSTHVPLTFGAGTKLELK | no binding | –
2047-3H8L2 (2047-3ix) (antibody, V domains shown) VH: QVQLKQSGAELVKPGASVKMSCKTSGYTFTDYVISWVKQRTGQGLEWIGEIYPGSGSTYYNEKFKGKATLTADISSNTAYMQLSSLTSEDSAVYFCASINFDYWGHGTTLTVSS VL: DIVMTQSPATLSVTPGDRVSLSCRASQSISDYLHWYQQKSHESPRLLIKYASQSISGIPSRFSGSGSGSDFTLSINSVEPEDVGVYYCQNGHSFPYTFGGGTKLEIK | no binding | –
2046-36H2L1 (2046-36ix) (antibody, V domains shown) VH: QIQLVQSGPELKKPGETVRISCKASGYTFTTAGMQWVQKMPGKGLKWIGWINTHSGVPKYAEDFKGRFAFSLETSASTAYLQISNLKNEDTATYFCASDYAFGYWGQGTLVTVSA VL: not shown | no binding | –
2047-10H1L2 (2047-10ix) (antibody, V domains shown) VH: QVQLQQSGPELVRPGVSVKISCKGSGYTFTDYAMHWVKQSHAKSLEWIGVISTYNGNTNYNQKFKGKATMTVDKSSSTAYMELARLTSEDSAIYYCARSYGNYPFDYWGQGTTLTVSS VL: DIKMTQSPSSMYASLGERVTITCKASQDINSYLSWFQQKPGKSPKTLIYRANRLVDGVPSRFSGSGSGQDYSLTISSLEYEDMGIYYCLQYDEFPYTFGGGTKLEIK | no binding | –
